Reference: paper PMC2662861, “An unexpected phosphate binding site in Glyceraldehyde 3-Phosphate Dehydrogenase: Crystal structures of apo, holo and ternary complex of Cryptosporidium parvum enzyme” (BMC Structural Biology, 2009)
Positions count from the first letter of the chain named. Names and notes keep the numbering of the source.

B1: Cryptosporidium parvum glyceraldehyde 3-phosphate dehydrogenase, wild type (enzyme)
chain: MTATLGINGFGRIGRLVLRACMERNDITVVAINDPFMDVEYMAYLLKYDSVHGNFNGTVEVSGKDLCINGKVVKVFQAKDPAEIPWGASGAQIVCESTGVFTTEEKASLHLKGGAKKVIISAPPKDNVPMYVMGVNNTEYDPSKFNVISNASCTTNCLAPLAKIINDKFGIVEGLMTTVHSLTANQLTVDGPSKGGKDWRAGRCAGNNIIPASTGAAKAVGKVIPALNGKLTGMAIRVPTPDVSVVDLTCKLAKPASIEEIYQAVKEASNGPMKGIMGYTSDDVVSTDFIGCKYSSIFDKNACIALNDSFVKLISWYDNESGYSNRLVDLAVYVASRGL
notes: glyceraldehyde 3-phosphate dehydrogenase of Cryptosporidium parvum; Homotetramer; Crystallised as apoenzyme and, after incubation with 2 mM NAD, as holoenzyme; also called CpGAPDH; C. parvum GAPDH; source: E. coli, purified (Ni-NTA, SP Sepharose cation exchange, Superdex 200); not shown: His6, N-terminal, kept
B2: Cryptosporidium parvum glyceraldehyde 3-phosphate dehydrogenase, C153S active site mutant (enzyme)
chain: B1 chain with C153S
notes: also called C153S mutant CpGAPDH; C153S CpGAPDH; source: E. coli, purified (Ni-NTA, SP Sepharose cation exchange, Superdex 200); not shown: His6, N-terminal, kept

Target: the molecule itself
Assay: crystal structure

| Protein | stoichiometry N |
| --- | --- |
| B1 | 4 |
| B2 | 4 |
